2 molecules from US5536648, “Amplified DNA assay using a double stranded DNA binding protein” (Amrad Corporation Limited) can be followed below.

Series [1] deals with T1, GST-GCN4 6.8 (full-length GCN4, 281 aa) (Saccharomyces cerevisiae, UniProt P03069 P03069:1-281). Briefly: microtitre plate capture, MTPBS-Tween, 20 C; binds with 1 ug/ml carrier human DNA. The following applies: tags: N-terminal GST (Schistosoma japonicum), pGEX-2T, E. coli; chain copies: 2.
In series [2] the target is T1, GST-GCN4 6.8 (full-length GCN4, 281 aa). Briefly: microtitre plate capture; binds with 1 ug/ml carrier human DNA; oligo called d2 in results, d1 in methods. To be noted: tags: N-terminal GST (Schistosoma japonicum), pGEX-2T, E. coli; chain copies: 2.

T1 sequence (P03069 whole entry, one chain of several): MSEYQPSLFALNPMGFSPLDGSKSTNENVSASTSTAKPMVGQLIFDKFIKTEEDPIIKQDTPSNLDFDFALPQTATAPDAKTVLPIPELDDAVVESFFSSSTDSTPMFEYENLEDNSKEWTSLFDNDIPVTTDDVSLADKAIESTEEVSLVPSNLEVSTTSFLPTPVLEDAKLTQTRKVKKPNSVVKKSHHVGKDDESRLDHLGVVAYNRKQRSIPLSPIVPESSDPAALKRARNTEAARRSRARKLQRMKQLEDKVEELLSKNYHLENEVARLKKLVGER

B1: HIV p24 c-d PCR product with GCN4 site (primer d shown) (dsDNA)
DNA 1: AAGTGACTCAAGTGACTCAATCCTTGTCTTATGTCCAGAA
DNA 2: TTCTGGACATAAGACAAGGATTGAGTCACTTGAGTCACTT
Turning to B1, the binding result in series [1] is recorded as “binds”.

B2: HIV p24 c-d1 (figure: d2) PCR product with GCN4 site (primer d1 shown) (dsDNA)
DNA 1: AGCGGATGACTCATTTTTTTTTCCTTGTCTTATGTCCAGAA
DNA 2: TTCTGGACATAAGACAAGGAAAAAAAAATGAGTCATCCGCT
Take B2: the binding result in series [2] is “binds”.
